Data published in publication PMC3729259 (The Prostate, 2010).

Molecular target: Gal4-PAX6 fusion protein (human, UniProt P26367 1-422)
Test: two-hybrid

Gal4-PAX6 fusion protein, sequence (P26367 whole entry, the tested form may be a part): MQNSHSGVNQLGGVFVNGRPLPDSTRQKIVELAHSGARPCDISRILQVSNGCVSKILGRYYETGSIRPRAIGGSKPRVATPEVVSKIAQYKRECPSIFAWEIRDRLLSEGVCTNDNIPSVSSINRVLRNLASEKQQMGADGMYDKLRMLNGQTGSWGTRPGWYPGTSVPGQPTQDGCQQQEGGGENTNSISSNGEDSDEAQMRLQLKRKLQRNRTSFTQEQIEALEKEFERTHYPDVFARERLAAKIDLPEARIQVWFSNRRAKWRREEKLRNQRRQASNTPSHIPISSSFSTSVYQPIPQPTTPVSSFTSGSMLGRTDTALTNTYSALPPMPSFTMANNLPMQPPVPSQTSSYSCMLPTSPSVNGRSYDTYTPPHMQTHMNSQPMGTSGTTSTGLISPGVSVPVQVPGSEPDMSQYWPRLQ

fold luciferase activity (against cells with pGal4 and pVP16): 4 fold
B1: VP16-AR fusion protein (receptor, UniProt P10275 1-920, looked up)
chain: MEVQLGLGRVYPRPPSKTYRGAFQNLFQSVREVIQNPGPRHPEAASAAPPGASLLLLQQQQQQQQQQQQQQQQQQQQQQQETSPRQQQQQQGEDGSPQAHRRGPTGYLVLDEEQQPSQPQSALECHPERGCVPEPGAAVAASKGLPQQLPAPPDEDDSAAPSTLSLLGPTFPGLSSCSADLKDILSEASTMQLLQQQQQEAVSEGSSSGRAREASGAPTSSKDNYLGGTSTISDNAKELCKAVSVSMGLGVEALEHLSPGEQLRGDCMYAPLLGVPPAVRPTPCAPLAECKGSLLDDSAGKSTEDTAEYSPFKGGYTKGLEGESLGCSGSAAAGSSGTLELPSTLSLYKSGALDEAAAYQSRDYYNFPLALAGPPPPPPPPHPHARIKLENPLDYGSAWAAAAAQCRYGDLASLHGAGAAGPGSGSPSAAASSSWHTLFTAEEGQLYGPCGGGGGGGGGGGGGGGGGGGGGGGEAGAVAPYGYTRPPQGLAGQESDFTAPDVWYPGGMVSRVPYPSPTCVKSEMGPWMDSYSGPYGDMRLETARDHVLPIDYYFPPQKTCLICGDEASGCHYGALTCGSCKVFFKRAAEGKQKYLCASRNDCTIDKFRRKNCPSCRLRKCYEAGMTLGARKLKKLGNLKLQEEGEASSTTSPTEETTQKLTVSHIEGYECQPIFLNVLEAIEPGVVCAGHDNNQPDSFAALLSSLNELGERQLVHVVKWAKALPGFRNLHVDDQMAVIQYSWMGLMVFAMGWRSFTNVNSRMLYFAPDLVFNEYRMHKSRMYSQCVRMRHLSQEFGWLQITPQEFLCMKALLLFSIIPVDGLKNQKFFDELRMNYIKELDRIIACKRKNPTSCSRRFYQLTKLLDSVQPIARELHQFTFDLLIKSHMVSVDFPEMMAEIISVQVPKILSGKVKPIYFHTQ
